We go through nine sequences from patent publication US20070117112.

Where two headings read alike, the source gives them in different places.

In data set [1] the target is T7 RNA polymerase Y639L/H784A/K378R (LAR) (Bacteriophage T7) (UniProt P00573). Conditions: 2'-OMe NTPs.
Data set [2] shares this target. Conditions: 15 mL 2'-OMe NTP transcription, 8 mM MgCl2, 2.5 mM MnCl2.
For data set [3] the target is unchanged. The conditions noted are these: 2'-OMe NTP transcription; 2.1 ug/ml enzyme, 8 mM MgCl2, 2.5 mM MnCl2, 37 C; template made with 5' poly-A extended primer.
The target of data set [4] is T7 RNA polymerase P266L/Y639L/H784A/K378R (LLAR) (Bacteriophage T7) (UniProt P00573). Conditions: 2'-OMe NTP transcription; at 2.6 ug/ml enzyme (130 at 11, 13 at 0.66, 8.3 at 0.16 ug/ml); template made with 5' poly-A extended primer.

“TAATACGACTCACTATAGGAGCCTTCCTCCGGANNNNNNNNNNNNNNNNNNNNNNNNNNNNNNNNNNNNNNNNTCCGGTTTCCCGAGCTT (double strand) [Template 6]” returned an activity (% relative yield) in data set [1] (listed as Pool 2, relative to Pool 4) of 88.

“TAATACGACTCACTATAGGGAGAATTCCGACCACAAGNNNNNNNNNNNNNNNNNNNNNNNNNNNNNNNNNNNNNNNNCATATGTGCGTCTACATGGATCCTCA (double strand) [Template 4]”: in data set [2], the activity (nmol transcript) was 27.8.

As for “TAATACGACTCACTATAGGGAGAATTCCGACCAGAAGCTTNNNNNNNNNNNNNNNNNNNNNNNNNNNNNNNNNNNNNNNNCATATGTGCGTCTACATGGATCCTCA (double strand) [Template 1]”, the activity (nmol transcript) in data set [2] is 18.7.

Consider “TAATACGACTCACTATAGGGAGACAAGAATAAACGCTCAANNNNNNNNNNNNNNNNNNNNNNNNNNNNNNNNNNNNNNNNTTCGACAGGAGGCTCACAACAGGC (double strand) [Template 7]”, for which, in data set [1] (listed as Pool 3, relative to Pool 4), the activity (% relative yield) was found to be 130.

With “TAATACGACTCACTATAGGGAGAGACAAGCTTGGGTCNNNNNNNNNNNNNNNNNNNNNNNNNNNNNNNNNNNNNNNNAGAAGAGAAAGAGAAGTTAATTAAGGATCCTCAG (double strand) [Template 3]”, the activity (nmol transcript) in data set [2] turned out to be 20.2.

“TAATACGACTCACTATAGGGAGAGCGGAAGCCGTGCTGGGGCCNNNNNNNNNNNNNNNNNNNNNNNNNNNNNNNNNNNNNNNNCATAACCCAGAGGTCGATGGATC (double strand) [Template 2]” had an activity (nmol transcript) in data set [2] of 17.4.

Regarding “TAATACGACTCACTATAGGGCCTTGTAGCGTGCATTCTTGNNNNNNNNNNNNNNNNNNNNNNNNNNNNNNCTAACATACTCCGAATCTGTCGAA (double strand) [Template 5]”, the activity (% relative yield) in data set [1] (listed as Pool 1, relative to Pool 4) came out at 80.

For “TAATACGACTCACTATAGGGGAGTACAATAACCAGACATNNNNNNNNNNNNNNNNNNNNNNNNNNNNNNGGATCGTTACGACTAGCATCGATG (double strand) [Template 8]”, in data set [1] (listed as Pool 4 (reference)), the activity (% relative yield) came to 100.

Regarding “TAATACGACTCACTATAGGGGAGTACAATAACGTTCTCGNNNNNNNNNNNNNNNNNNNNNNNNNNNNNNGGATCGTTACGACTAGCATCGATG (double strand) [ARC2118 template library]”, the values for the activity (% normalized yield) in data set [3] and in data set [4] were 100 and 65, respectively.
